Measured values as given in patent publication US20050227296A1, “Method for indentifying integrin antagonists” (The General Hospital Corporation, a Massachusetts …, priority 1988, published 2005).

Molecular target: T1, EAiC3b (erythrocytes coated with iC3b) (Homo sapiens, UniProt P01024)
T1 construct: EAiC3b (erythrocytes coated with iC3b) were generated by treating EAC3b with purified human factors H and I; tissue Sigma Chemical Co. (C5-deficient human serum); host or cells: human serum C3 deposited on IgM-coated erythrocytes
T1 sequence (P01024 749-1303 limits assumed): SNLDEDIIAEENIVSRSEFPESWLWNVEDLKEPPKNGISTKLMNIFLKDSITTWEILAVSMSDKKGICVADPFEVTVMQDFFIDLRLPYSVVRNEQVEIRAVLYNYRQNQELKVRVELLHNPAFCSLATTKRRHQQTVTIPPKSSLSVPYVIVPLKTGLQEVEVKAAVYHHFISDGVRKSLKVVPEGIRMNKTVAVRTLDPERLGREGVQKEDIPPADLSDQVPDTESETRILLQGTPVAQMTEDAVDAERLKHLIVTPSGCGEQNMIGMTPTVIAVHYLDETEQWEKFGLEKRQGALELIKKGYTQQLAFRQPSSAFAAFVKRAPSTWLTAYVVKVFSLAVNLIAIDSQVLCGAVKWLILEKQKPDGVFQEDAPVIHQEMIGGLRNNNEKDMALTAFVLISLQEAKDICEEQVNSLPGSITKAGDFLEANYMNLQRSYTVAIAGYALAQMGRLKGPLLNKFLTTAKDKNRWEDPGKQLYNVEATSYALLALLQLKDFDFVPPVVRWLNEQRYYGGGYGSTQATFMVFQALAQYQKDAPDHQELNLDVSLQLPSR
T1 sequence (P01024 23-667 partner limits assumed): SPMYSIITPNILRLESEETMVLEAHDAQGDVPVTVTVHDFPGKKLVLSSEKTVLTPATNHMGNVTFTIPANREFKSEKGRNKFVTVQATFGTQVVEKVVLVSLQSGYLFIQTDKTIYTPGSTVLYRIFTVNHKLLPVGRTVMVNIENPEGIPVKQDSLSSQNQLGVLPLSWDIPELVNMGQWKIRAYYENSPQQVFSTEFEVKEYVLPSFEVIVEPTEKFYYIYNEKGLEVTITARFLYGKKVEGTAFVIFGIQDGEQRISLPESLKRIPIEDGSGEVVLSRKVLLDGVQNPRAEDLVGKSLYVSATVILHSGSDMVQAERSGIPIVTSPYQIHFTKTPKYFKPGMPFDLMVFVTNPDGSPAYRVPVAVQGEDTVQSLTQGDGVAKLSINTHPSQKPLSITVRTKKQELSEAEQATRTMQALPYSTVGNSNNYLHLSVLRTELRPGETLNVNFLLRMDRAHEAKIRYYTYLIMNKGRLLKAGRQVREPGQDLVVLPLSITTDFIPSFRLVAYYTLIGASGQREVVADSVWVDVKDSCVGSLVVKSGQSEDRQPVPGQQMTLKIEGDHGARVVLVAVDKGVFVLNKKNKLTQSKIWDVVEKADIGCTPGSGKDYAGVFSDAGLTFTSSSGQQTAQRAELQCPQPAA
T1 sequence (P01024 1321-1663 partner limits assumed): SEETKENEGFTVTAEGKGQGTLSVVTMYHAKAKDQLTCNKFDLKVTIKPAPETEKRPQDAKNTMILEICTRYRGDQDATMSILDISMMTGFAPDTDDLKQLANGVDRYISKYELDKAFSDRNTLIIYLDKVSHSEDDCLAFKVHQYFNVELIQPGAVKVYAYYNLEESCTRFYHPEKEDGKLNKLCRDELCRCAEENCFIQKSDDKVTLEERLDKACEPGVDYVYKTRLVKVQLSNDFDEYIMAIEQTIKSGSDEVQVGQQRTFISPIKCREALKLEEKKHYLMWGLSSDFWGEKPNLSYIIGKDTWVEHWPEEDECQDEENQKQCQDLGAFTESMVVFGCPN
Test: Erythrocyte binding assay, EAiC3b on immobilized proteins or peptides
Settings: 37° C., divalent cations
Protocol: Erythrocytes (E) coated with rabbit anti-E IgM (EA) or C3b (EAC3b) were prepared as described by Dana et al. (J. Immunol. 73:153, 1984). EAiC3b (erythrocytes coated with iC3b) were generated by treating EAC3b with purified human factors H and I, or alternatively prepared from EA using C5-deficient human serum (Sigma Chemical Co., St. Louis, Mo.). EAiC3b cells were washed and stored in isotonic veronal-buffered saline (VBS^2+), pH 7.4, containing 0.15 mM calcium-1 mM magnesium (MgCl2+CaCl2) and 1 mg/ml Soybean Trypsin Inhibitor (STI; Worthington Biochemical Co., Freehold, N.J.) at 1.5×10^8 cells/ml. […]
Immobilization of recombinant proteins and peptides: Purified recombinant A-domain was added to Immulon-2 96-well microtiter plates (Dynatech) overnight. […] Binding of the anti-CD11b mabs to the coated rA-domain was measured by ELISA and read using a plate reader (Molecular Dynamics).
Erythrocyte binding assays: Fluoresceinated EAiC3b, EAC3b or EA were resuspended to 1.5×10^8/ml in buffer A, and added […] to wells containing immobilized proteins or peptides in a total volume of 100 ml. […] Fluorescence was quantified (excitatory wavelength, 490 nm, emission wavelength, 510 nm) using a SLM 8000 fluorometer (SLM Instruments, Urbana, Ill.). […] The effect of temperature was evaluated in the presence of 1 mM MnCl2 at 37° C. and at 4° C.

B1: r11aA: recombinant CD11a A domain expressed as GST fusion protein (protein)
chain: GNVDLVFLFDGSMSLQPDEFQKILDFMKDVMKKLSNTSYQFAAVQFSTSYKTEFDFSDYVKRKDPDALLKHVKHMLLLTNTFGAINYVATEVFREELGARPDATKVLIIITDGEATDSGNIDAAKDIIRYIIGIGKHFQTKESQETLHKFASKPASEFVKILDTFEKLKDLFTELQKKIY
Listed as rA-domain derived from CD11a/CD18
  direct binding of EAiC3b to immobilized protein or peptide: did not bind
Listed as rCD11a A-domain
  direct binding of EAiC3b to immobilized protein or peptide: lack of binding
